{
  "source": "patent US20220177580A1",
  "about": "(Amgen, published 2022)",
  "key": {"[1]": {"target": "T1, human FcγRI (His-tagged, soluble, captured for SPR) (human, UniProt P12314 16-292, limits assumed)", "T1 construct": "His-tagged human FcγR expressed in CHO cells, purified in house and captured by an anti-His antibody on a CM5 chip; also called CD64; not shown: His tag", "T1 sequence (P12314 16-292 limits assumed)": "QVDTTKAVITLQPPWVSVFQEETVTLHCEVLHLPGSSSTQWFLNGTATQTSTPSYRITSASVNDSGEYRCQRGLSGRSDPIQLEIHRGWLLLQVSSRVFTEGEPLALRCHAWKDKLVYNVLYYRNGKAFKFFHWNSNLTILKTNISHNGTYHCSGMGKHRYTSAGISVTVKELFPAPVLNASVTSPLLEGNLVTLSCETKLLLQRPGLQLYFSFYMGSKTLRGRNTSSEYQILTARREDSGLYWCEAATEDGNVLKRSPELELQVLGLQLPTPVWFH", "test": "SPR, His-tagged FcγR captured by anti-His antibody, antibody injected", "experimental": "(§1) Surface plasmon resonance experiments were performed using the SPR T-200 instrument. His-tagged human FcγRs were expressed in CHO cells and purified in house mouse anti-his capture antibody was immobilized at approximately 5000 RU on a Series S Sensor Chip CM5 (GE Healthcare) using Instrument Buffer (0.005% P20 in PBS). FcγRs were diluted to 3.3˜10 nM in running buffer (0.005% P20, 0.1 mg/mL BSA in PBS) and injected at 10 μL/min for 1.5 min for the capture step. Panitumumab samples were diluted in running buffer (PBS+0.005% P20+0.1 mg/mL BSA) over a range of concentrations from 0.4 nM-20000 nM and injected over the captured FcγR with association and dissociation times of 3 minutes at 50 μL/min. The chip surface was regenerated by injecting 10 mM glycine, pH 1.7 at 30 μL/min for 30 s."}, "[2]": {"target": "T2, huFcγRIIa-131H (His-tagged, soluble, captured for SPR) (human, UniProt P12318 34-217, limits assumed)", "T2 construct": "His-tagged human FcγR expressed in CHO cells, purified in house and captured by an anti-His antibody on a CM5 chip; also called FcγRIIa-H131; not shown: His tag", "T2 sequence (looked up)": "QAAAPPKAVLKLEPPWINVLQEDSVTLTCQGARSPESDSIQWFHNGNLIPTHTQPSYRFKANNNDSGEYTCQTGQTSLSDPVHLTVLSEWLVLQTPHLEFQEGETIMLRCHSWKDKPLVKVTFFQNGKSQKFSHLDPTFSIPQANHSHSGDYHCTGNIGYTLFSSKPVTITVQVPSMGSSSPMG", "test": "SPR, His-tagged FcγR captured by anti-His antibody, antibody injected; unenriched panitumumab; apparent KD", "experimental": "as §1"}, "[3]": {"target": "T2, huFcγRIIa-131H (His-tagged, soluble, …)", "test": "SPR equilibrium binding, His-tagged FcγR captured by anti-His antibody; afucose enriched; equilibrium binding", "experimental": "as §1\n(§2) To try to assess the affinity of panitumumab and the various enriched glycan species for FcγRs, we measured the biding of panitumumab samples to all three human Fcγ Receptors by surface plasmon resonance (SPR). […] The binding was further assessed for the fucose and afucose enriched panitumumab samples by equilibrium binding (FIGS. 11A-11B). […]"}, "[4]": {"target": "T2, huFcγRIIa-131H (His-tagged, soluble, …)", "test": "SPR equilibrium binding, His-tagged FcγR captured by anti-His antibody; fucose enriched; equilibrium binding", "experimental": "as §1, §2"}},
  "data": [
    {"binder": "Panitumumab (antibody, human IgG2, kappa, N-linked glycan at N-297 (Kabat EU numbering; residue 295 of SEQ ID NO:1), Human IgG2 anti-EGFR monoclonal antibody produced in CHO cells at Amgen; unfractionated glycan profile; also called Vectibix; IgG2 (Panitumumab)) heavy: QVQLQESGPGLVKPSETLSLTCTVSGGSVSSGDYYWTWIRQSPGKGLEWIGHIYYSGNTNYNPSLKSRLTISIDTSKTQFSLKLSSVTAADTAIYYCVRDRVTGAFDIWGQGTMVTVSSASTKGPSVFPLAPCSRSTSESTAALGCLVKDYFPEPVTVSWNSGALTSGVHTFPAVLQSSGLYSLSSVVTVPSSNFGTQTYTCNVDHKPSNTKVDKTVERKCCVECPPCPAPPVAGPSVFLFPPKPKDTLMISRTPEVTCVVVDVSHEDPEVQFNWYVDGVEVHNAKTKPREEQFNSTFRVVSVLTVVHQDWLNGKEYKCKVSNKGLPAPIEKTISKTKGQPREPQVYTLPPSREEMTKNQVSLTCLVKGFYPSDIAVEWESNGQPENNYKTTPPMLDSDGSFFLYSKLTVDKSRWQQGNVFSCSVMHEALHNHYTQKSLSLSPGK light: not shown", "values": [
      {"measurement": "binding result", "setting": "[1]", "result": "no binding (tested: 10 µM)"},
      {"measurement": "Kd", "setting": "[2]", "result": "~20", "unit": "µM"}
    ]},
    {"binder": "afucose enriched panitumumab (antibody, human IgG2, kappa, N-297 glycan (residue 295 of SEQ ID NO:1) enriched for afucosylated species (Endo-H treatment, eluate of FcγIIIa affinity column; terminal galactose removed with β-(1-4)-galactosidase), also called afucosylated panitumumab; afucose enriched (eluate) mAb) heavy: QVQLQESGPGLVKPSETLSLTCTVSGGSVSSGDYYWTWIRQSPGKGLEWIGHIYYSGNTNYNPSLKSRLTISIDTSKTQFSLKLSSVTAADTAIYYCVRDRVTGAFDIWGQGTMVTVSSASTKGPSVFPLAPCSRSTSESTAALGCLVKDYFPEPVTVSWNSGALTSGVHTFPAVLQSSGLYSLSSVVTVPSSNFGTQTYTCNVDHKPSNTKVDKTVERKCCVECPPCPAPPVAGPSVFLFPPKPKDTLMISRTPEVTCVVVDVSHEDPEVQFNWYVDGVEVHNAKTKPREEQFNSTFRVVSVLTVVHQDWLNGKEYKCKVSNKGLPAPIEKTISKTKGQPREPQVYTLPPSREEMTKNQVSLTCLVKGFYPSDIAVEWESNGQPENNYKTTPPMLDSDGSFFLYSKLTVDKSRWQQGNVFSCSVMHEALHNHYTQKSLSLSPGK light: not shown", "values": [
      {"measurement": "Kd", "setting": "[3]", "result": "~8", "unit": "µM"}
    ]},
    {"binder": "fucose enriched panitumumab (antibody, human IgG2, kappa, N-297 glycan (residue 295 of SEQ ID NO:1) enriched for fucosylated species (flow-through of FcγIIIa affinity column; terminal galactose removed with β-(1-4)-galactosidase), also called fucosylated panitumumab; afucose-depleted (flow-through) mAb) heavy: QVQLQESGPGLVKPSETLSLTCTVSGGSVSSGDYYWTWIRQSPGKGLEWIGHIYYSGNTNYNPSLKSRLTISIDTSKTQFSLKLSSVTAADTAIYYCVRDRVTGAFDIWGQGTMVTVSSASTKGPSVFPLAPCSRSTSESTAALGCLVKDYFPEPVTVSWNSGALTSGVHTFPAVLQSSGLYSLSSVVTVPSSNFGTQTYTCNVDHKPSNTKVDKTVERKCCVECPPCPAPPVAGPSVFLFPPKPKDTLMISRTPEVTCVVVDVSHEDPEVQFNWYVDGVEVHNAKTKPREEQFNSTFRVVSVLTVVHQDWLNGKEYKCKVSNKGLPAPIEKTISKTKGQPREPQVYTLPPSREEMTKNQVSLTCLVKGFYPSDIAVEWESNGQPENNYKTTPPMLDSDGSFFLYSKLTVDKSRWQQGNVFSCSVMHEALHNHYTQKSLSLSPGK light: not shown", "values": [
      {"measurement": "Kd", "setting": "[4]", "result": "~7.9", "unit": "µM"}
    ]}
  ]
}
